Results published in patent US20190142971A1, “FORMULATION AND DELIVERY OF MODIFIED NUCLEOSIDE, NUCLEOTIDE, AND NUCLEIC ACID COMPOSITIONS” (ModernaTX, Inc., priority 2013, published 2019).

Assays:
Assay type in all cases: in vivo
[1] = system: Sprague-Dawley rats; assay: Example 34: EPO mRNA in buffer IM in rats, serum EPO (Table 59); details: dose 100 μg, 13 hours post injection
[2] = system: mice; assay: Example 42A: G-CSF/EPO mRNA in buffer IM in mice, serum protein at 13 hours (Table 67); details: IM 100 ug
Method: The mice were bled at 13 hours after the injection to determine the concentration of the human polypeptide in serum in pg/mL (G-CSF groups measured human G-CSF in mouse serum and EPO groups measured human EPO in mouse serum).

[3] = system: mice; assay: Example 65: G-CSF/EPO mRNA in saline in mice, serum protein at 13 hours (Table 97); details: 100 ug, 100 μl/mouse, F. buffer, 13 hours after injection; for Average Protein Product, serum (human G-CSF): G-CSF group
Method: The mice were bled at 13 hours after the injection to determine the concentration of the human polypeptide in serum in pg/mL. (G-CSF groups measured human G-CSF in mouse serum and EPO groups measured human EPO in mouse serum).

[4] = system: mice; assay: Example 18: time course LNP IV in mice, serum EPO/G-CSF ELISA (Table 35); details: for EPO / G-CSF Serum Concentration: mice, LNP IV
Method: Formulations, listed in Table 33, were characterized by particle size, zeta potential, and encapsulation.
LNP formulations, shown in Table 33 (above), were administered to mice (n=5) intravenously (IV) at a single modified mRNA dose of 0.5, 0.05 or 0.005 mg/kg. The mice were bled at 8 hours, 24 hours, 72 hours and 6 days after they were administered with G-CSF or EPO modified mRNA formulations to determine protein expression using ELISA.

[5] = system: non-human primates (cynomolgus monkey); assay: Example 22: LNP IV in non-human primates, serum G-CSF/EPO ELISA (Tables 38, 39)
Method: LNP formulations, shown in Table 33 (above), were administered to non-human primates (NHP) (cynomolgus monkey) (n=2) as intravenous injection (IV). The NHP were administered a single modified mRNA IV dose of 0.5 mg/kg, 0.05 mg/kg or 0.005 mg/kg of G-CSF or EPO in a dose volume of 0.5 mL/kg. The NHPs were bled before dosing with the modified mRNA LNP formulations to determine protein expression in the serum and a baseline complete blood count. After administration with the G-CSF modified mRNA formulation the NHP were bled at 8, 24, 48 and 72 hours to determined protein expression. After administration with the EPO modified mRNA formulation the NHP were bled at 8, 24, 48, 72 hours and 7 days to determined protein expression.
Samples collected from the NHPs after they were administered with G-CSF or EPO modified mRNA formulations were analyzed by ELISA to determine protein expression. Neutrophil and reticulocyte count was also determined pre-dose, 24 hours, 3 days, 7 days, 14 days and 18 days after administration of the modified G-CSF or EPO formulation.

[6] = G-CSF group: human G-CSF in mouse serum

Luciferase: luciferase mRNA, SEQ ID NO: 14, Cap1, fully modified with 5-methylcytosine and pseudouridine
human EPO in serum, Avg. [1]: 24.5 pg/mL
human EPO in serum, Geometric-mean [1]: 22.4 pg/mL
Average Protein Product, serum ([2]; EPO group: human EPO in mouse serum): 15.0 pg/mL
Average Protein Product, serum [2, 6]: 0.5 pg/mL
Average Protein Product, serum (human EPO) ([3]; EPO group): 26.7 pg/mL
Average Protein Product, serum (human G-CSF) [3]: 0 pg/mL

B1: G-CSF: modified mRNA encoding human G-CSF, SEQ ID NO: 4, Cap1, fully modified with 5-methylcytosine and pseudouridine; LNP-formulated in Examples 16-22 (nucleic acid)
chain: GGGAAAUAAGAGAGAAAAGAAGAGUAAGAAGAAAUAUAAGAGCCACCAUGGCCGGUCCCGCGACCCAAAGCCCCAUGAAACUUAUGGCCCUGCAGUUGCUGCUUUGGCACUCGGCCCUCUGGACAGUCCAAGAAGCGACUCCUCUCGGACCUGCCUCAUCGUUGCCGCAGUCAUUCCUUUUGAAGUGUCUGGAGCAGGUGCGAAAGAUUCAGGGCGAUGGAGCCGCACUCCAAGAGAAGCUCUGCGCGACAUACAAACUUUGCCAUCCCGAGGAGCUCGUACUGCUCGGGCACAGCUUGGGGAUUCCCUGGGCUCCUCUCUCGUCCUGUCCGUCGCAGGCUUUGCAGUUGGCAGGGUGCCUUUCCCAGCUCCACUCCGGUUUGUUCUUGUAUCAGGGACUGCUGCAAGCCCUUGAGGGAAUCUCGCCAGAAUUGGGCCCGACGCUGGACACGUUGCAGCUCGACGUGGCGGAUUUCGCAACAACCAUCUGGCAGCAGAUGGAGGAACUGGGGAUGGCACCCGCGCUGCAGCCCACGCAGGGGGCAAUGCCGGCCUUUGCGUCCGCGUUUCAGCGCAGGGCGGGUGGAGUCCUCGUAGCGAGCCACCUUCAAUCAUUUUUGGAAGUCUCGUACCGGGUGCUGAGACAUCUUGCGCAGCCGUGAAGCGCUGCCUUCUGCGGGGCUUGCCUUCUGGCCAUGCCCUUCUUCUCUCCCUUGCACCUGUACCUCUUGGUCUUUGAAUAAAGCCUGAGUAGGAAG
modifications: Cap1, 5-methylcytosine, pseudouridine
protein expression detectable out to ([4]; mice IV, 0.005 mg/kg and 0.05 mg/kg): 72 h
EPO / G-CSF Serum Concentration ([4]; 0.005 mg/kg, 8 hours): 11,550.6 pg/ml
EPO / G-CSF Serum Concentration ([4]; 0.005 mg/kg, 24 hours): 5,068.9 pg/ml
EPO / G-CSF Serum Concentration ([4]; 0.05 mg/kg, 8 hours): 462,312.5 pg/ml
EPO / G-CSF Serum Concentration ([4]; 0.05 mg/kg, 24 hours): 80,903.8 pg/ml
EPO / G-CSF Serum Concentration ([4]; 0.5 mg/kg, 8 hours): >1,250,000 pg/ml
EPO / G-CSF Serum Concentration ([4]; 0.5 mg/kg, 24 hours): 495,812.5 pg/ml
EPO / G-CSF Serum Concentration ([4]; 0.5 mg/kg, 72 hours): 1,325.6 pg/ml
Female NHP Serum G-CSF / EPO Concentration ([5]; 0.005 mg/kg IV, 8 hours): 559 pg/mL
Male NHP Serum G-CSF / EPO Concentration ([5]; 0.005 mg/kg IV, 8 hours): 700 pg/mL
Female NHP Serum G-CSF / EPO Concentration ([5]; 0.005 mg/kg IV, 24 hours): 155 pg/mL
Male NHP Serum G-CSF / EPO Concentration ([5]; 0.005 mg/kg IV, 24 hours): <39 pg/mL
Female NHP Serum G-CSF / EPO Concentration ([5]; 0.005 mg/kg IV, 48 hours): <39 pg/mL
Male NHP Serum G-CSF / EPO Concentration ([5]; 0.005 mg/kg IV, 48 hours): <39 pg/mL
Female NHP Serum G-CSF / EPO Concentration ([5]; 0.005 mg/kg IV, 72 hours): <39 pg/mL
Male NHP Serum G-CSF / EPO Concentration ([5]; 0.005 mg/kg IV, 72 hours): <39 pg/mL
Female NHP Serum G-CSF / EPO Concentration ([5]; 0.005 mg/kg IV, Pre-bleed): <39 pg/mL
Male NHP Serum G-CSF / EPO Concentration ([5]; 0.005 mg/kg IV, Pre-bleed): <39 pg/mL
Female NHP Serum G-CSF / EPO Concentration ([5]; 0.05 mg/kg IV, 8 hours): 3,289 pg/ml
Male NHP Serum G-CSF / EPO Concentration ([5]; 0.05 mg/kg IV, 8 hours): 1,722 pg/ml
Female NHP Serum G-CSF / EPO Concentration ([5]; 0.05 mg/kg IV, 24 hours): 722 pg/mL
Male NHP Serum G-CSF / EPO Concentration ([5]; 0.05 mg/kg IV, 24 hours): 307 pg/mL
Female NHP Serum G-CSF / EPO Concentration ([5]; 0.05 mg/kg IV, 48 hours): <39 pg/mL
Male NHP Serum G-CSF / EPO Concentration ([5]; 0.05 mg/kg IV, 48 hours): <39 pg/mL
Female NHP Serum G-CSF / EPO Concentration ([5]; 0.05 mg/kg IV, 72 hours): <39 pg/mL
Male NHP Serum G-CSF / EPO Concentration ([5]; 0.05 mg/kg IV, 72 hours): <39 pg/mL
Female NHP Serum G-CSF / EPO Concentration ([5]; 0.05 mg/kg IV, Pre-bleed): <39 pg/mL
Male NHP Serum G-CSF / EPO Concentration ([5]; 0.05 mg/kg IV, Pre-bleed): <39 pg/mL
Female NHP Serum G-CSF / EPO Concentration ([5]; 0.5 mg/kg IV, 8 hours): 43,525 pg/ml
Male NHP Serum G-CSF / EPO Concentration ([5]; 0.5 mg/kg IV, 8 hours): 43,594 pg/ml
Female NHP Serum G-CSF / EPO Concentration ([5]; 0.5 mg/kg IV, 24 hours): 11,374 pg/ml
Male NHP Serum G-CSF / EPO Concentration ([5]; 0.5 mg/kg IV, 24 hours): 3,628 pg/ml
Female NHP Serum G-CSF / EPO Concentration ([5]; 0.5 mg/kg IV, 48 hours): 1,100 pg/ml
Male NHP Serum G-CSF / EPO Concentration ([5]; 0.5 mg/kg IV, 48 hours): 833 pg/mL
Female NHP Serum G-CSF / EPO Concentration ([5]; 0.5 mg/kg IV, 72 hours): <39 pg/mL
Male NHP Serum G-CSF / EPO Concentration ([5]; 0.5 mg/kg IV, 72 hours): 306 pg/mL
Female NHP Serum G-CSF / EPO Concentration ([5]; 0.5 mg/kg IV, Pre-bleed): <39 pg/mL
Male NHP Serum G-CSF / EPO Concentration ([5]; 0.5 mg/kg IV, Pre-bleed): <39 pg/mL
protein expression not detected beyond ([5]; NHP IV): ≤ 72 h
Average Protein Product, serum [2, 6]: 19.8 pg/mL
Average Protein Product, serum (human G-CSF) [3]: 45 pg/mL
